In patent US20160158359A1 one finds In Vitro Score and In Vitro Score (% of positive control peptide) data, which are given here for 3 molecules.

Test [1] has as its target HLA-A*11:01 recombinant MHC class I molecule (human). In words: REVEAL MHC-peptide binding assay, stabilisation of ternary MHC-peptide complex, recombinant HLA. The conditions noted are these: remark: other sources report otherwise; scale: % of positive control peptide.
Test [2] has as its target HLA-B*08:01 recombinant MHC class I molecule (human). The test is described as above. The conditions noted are these: remark: other sources report otherwise; scale: % of positive control peptide.
Test [3] concerns the target recombinant HLA-A*02:01 MHC class I molecule (human). In words: REVEAL MHC-peptide binding assay, stabilisation of ternary complex with recombinant MHC. The conditions noted are these: remark: other sources report otherwise; scale: score, % of positive control peptide.
The target in test [4] is recombinant HLA-A*03:01 MHC class I molecule (human). Described as above. The note with it: remark: other sources report otherwise; scale: score, % of positive control peptide.
For test [5], the target named is HLA-A*03:01 recombinant MHC class I molecule (human). In words: REVEAL MHC-peptide complex stabilisation assay, recombinant HLA-A*03:01. The conditions noted are these: remark: other sources report otherwise.

Take VAFIIFWVR: the results for the In Vitro Score in test [1] and in test [2] were 34.6 and 0.1, respectively.

Take VAFIIFWVR [… synthetic 9-mer peptide (overlapping reference peptide 1, K29R)]: the figures for the In Vitro Score in test [3] and in test [4] were 1.2 and 0.7, respectively.

Take IFWVQRGAK […]: the In Vitro Score (% of positive control peptide) in test [5] came to 7.
